The results in this text go back to paper PMC5636811, “High-fidelity DNA replication in Mycobacterium tuberculosis relies on a trinuclear zinc center”.

This data set concerns the target DnaE1 (replicative DNA polymerase);β-clamp (Mycobacterium …, UniProt P9WNT7;P9WNU1 1-1184;1-402, |). Nature of the data set: cryo-EM 2D class average. Conditions: protein: recombinant;recombinant; tags: His tag cleaved with HRV 3C protease;; copies: 1;2.

DnaE1 (replicative DNA polymerase);β-clamp, sequence (P9WNT7 whole entry, chain 1 of 2): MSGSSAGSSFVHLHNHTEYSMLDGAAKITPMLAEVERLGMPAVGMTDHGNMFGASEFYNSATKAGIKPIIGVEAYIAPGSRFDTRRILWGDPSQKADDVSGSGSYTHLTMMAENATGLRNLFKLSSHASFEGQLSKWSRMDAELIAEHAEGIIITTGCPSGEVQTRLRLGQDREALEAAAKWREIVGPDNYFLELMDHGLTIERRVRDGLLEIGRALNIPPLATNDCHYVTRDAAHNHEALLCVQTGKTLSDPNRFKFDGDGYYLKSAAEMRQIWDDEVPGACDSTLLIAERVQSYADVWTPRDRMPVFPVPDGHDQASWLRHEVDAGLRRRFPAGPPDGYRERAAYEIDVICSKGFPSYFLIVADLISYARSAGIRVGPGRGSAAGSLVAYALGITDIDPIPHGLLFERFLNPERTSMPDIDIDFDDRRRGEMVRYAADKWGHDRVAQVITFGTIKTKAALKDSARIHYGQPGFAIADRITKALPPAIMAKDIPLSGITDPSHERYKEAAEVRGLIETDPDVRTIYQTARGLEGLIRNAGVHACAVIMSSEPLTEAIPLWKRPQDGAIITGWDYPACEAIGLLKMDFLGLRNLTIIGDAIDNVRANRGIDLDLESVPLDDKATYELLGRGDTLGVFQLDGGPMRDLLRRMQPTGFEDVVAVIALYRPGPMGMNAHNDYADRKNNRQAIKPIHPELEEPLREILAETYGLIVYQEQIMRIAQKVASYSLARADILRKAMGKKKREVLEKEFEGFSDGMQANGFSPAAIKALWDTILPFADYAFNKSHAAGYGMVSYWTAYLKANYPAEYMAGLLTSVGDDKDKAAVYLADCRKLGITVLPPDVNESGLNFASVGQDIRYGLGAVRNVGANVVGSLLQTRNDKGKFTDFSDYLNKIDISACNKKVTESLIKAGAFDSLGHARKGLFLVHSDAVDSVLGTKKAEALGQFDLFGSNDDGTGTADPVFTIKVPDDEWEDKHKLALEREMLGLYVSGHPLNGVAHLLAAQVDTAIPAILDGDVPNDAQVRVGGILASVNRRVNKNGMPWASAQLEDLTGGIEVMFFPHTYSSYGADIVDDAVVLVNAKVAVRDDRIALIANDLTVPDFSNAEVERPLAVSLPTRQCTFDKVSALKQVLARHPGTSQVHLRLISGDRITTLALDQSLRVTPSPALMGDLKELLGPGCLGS
DnaE1 (replicative DNA polymerase);β-clamp, sequence (P9WNU1 whole entry, chain 2 of 2): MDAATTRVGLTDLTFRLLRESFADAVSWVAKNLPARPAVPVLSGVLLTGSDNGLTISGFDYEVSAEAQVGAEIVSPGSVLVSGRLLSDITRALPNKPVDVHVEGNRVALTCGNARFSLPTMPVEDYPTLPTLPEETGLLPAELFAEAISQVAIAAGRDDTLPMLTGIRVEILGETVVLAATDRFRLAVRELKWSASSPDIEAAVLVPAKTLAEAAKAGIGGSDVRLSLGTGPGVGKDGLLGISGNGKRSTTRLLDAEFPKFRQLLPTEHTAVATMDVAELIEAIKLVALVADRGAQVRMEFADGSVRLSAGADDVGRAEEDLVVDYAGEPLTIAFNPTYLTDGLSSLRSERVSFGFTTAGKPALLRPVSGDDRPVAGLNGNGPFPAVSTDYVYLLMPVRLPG

B1: mismatched primer-template cryo-EM substrate (dsDNA)
DNA 1: CCCCTCAGGAGTCCTTCGTCCTAGTACTACTCC
DNA 2: GGAGTAGTACTAGGACGAAGGACGT
modifications: phosphorothioate between last two nt of primer (GsT)
Regarding B1, the binding result is listed as “binds”.
